In patent US6495314 (Scripps Research, dated 2002):
No end group written: not given here.

B5: Ac-CWAcp-PPPALPPKKR.amide, C3G-derived peptide designed for attachment to an affinity column (peptide)
peptide: CWPPPALPPKKR
modifications: N-terminal acetyl; ε-aminocaproic acid (Acp, B) at position 3; C-terminal amide; on the column the Cys side chain is coupled to iodoacetyl agarose (Sulfolink)
notes: also called Acetyl-CWAcp-C3G; Ac-CWBPPPALPPKKR.amide
B7: control peptide Ac-CAcpYGGFL.amide (YGGFL = leucine enkephalin) (peptide)
peptide: Ac-CYGGFL-NH2
modifications: not fully specified (residue 1); also: Cys side chain coupled to Sulfolink agarose
notes: also called Ac-CBYGGFL.amide; Leucine-Enkephalin agarose column

Legend:
[1] = target: B5; assay: 19-member array on C3G peptide affinity column, MALDI MS readout
[2] = target: B7; assay: nine-member array on control peptide column, A280
Experimental: The column was then washed with 0.5 M NaCl buffer to remove nonspecific binding proteins from the column. Specifically bound protein analogues were then eluted with 1 M hydroxylamine bufffer. Amounts of eluted peptide were monitored by UV absorbance at 280 nm. This procedure was used for both the C3G peptide column and for the control column loaded with Ac-C-AcpYGGFL.amide.
Affinity chromatography of the arrays of protein analogues was carried out as follows. […] After incubation at room temperature for a period of 6–8 hours the column was washed with 0.5 M NaCl in 0.1 M sodium phosphate, pH 7.0 buffer (6×1 mL) to remove any non-specifically bound proteins. The first two 1 mL fractions were collected and immediately mixed with an equal volume of 1 M NH_2OH, 20 mM NH_4HCO_3, pH 5.5 buffer to cleave any thioester-containing protein analogues. […] Samples of the eluted fractions were monitored by UV absorbance at 280 nm. This procedure was used for both the C3G peptide column and for the control column loaded with Ac-C-Acp-YGGFL.amide. To accommodate MALDI analysis, both the 0.5M NaCl wash and 1 M NH_2OH fractions were desalted on a low pressure, disposable C-18 column, washed with HPLC buffer A and peptide fragments eluted with 1.5 mL 60% acetonitrile in water, 0.1% TFA.

[3] = target: T1, synthetic murine cCrk N-terminal SH3 domain (residues 134-191) (murine, UniProt Q64010 134-191); assay: tryptophan fluorescence titration in solution, 12 hours incubation
T1 construct: Made by total chemical synthesis and folded in HEPES/NaCl buffer; also called cCrk(134-191); c-Crk SH3
Experimental: (§1) The resulting synthetic protein domain was then assayed for its affinity for two different proline-rich peptides. […] This change in solvent exposure leads to an increase in the fluorescence intensity of the tryptophan sidechain which can be monitored as a function of increasing ligand concentration (Feng et al. *Science* 1994.266, 1241–1245).
(§2) 1994, 3, 1261–1266. The purified and lyophilized 58 residue polypeptide chain (0.2 mg) was folded by dissolving in 0.6 mL of 20 mM Hepes, 60 mM NaCl, pH 7.3 to produce a folded protein solution (~50 μM).

BSA = BSA (UniProt P02769 25-607); assay: C3G peptide affinity column, stepwise NaCl washes, A280 and mass spectrometry
Sequence of BSA (P02769 25-607 limits assumed): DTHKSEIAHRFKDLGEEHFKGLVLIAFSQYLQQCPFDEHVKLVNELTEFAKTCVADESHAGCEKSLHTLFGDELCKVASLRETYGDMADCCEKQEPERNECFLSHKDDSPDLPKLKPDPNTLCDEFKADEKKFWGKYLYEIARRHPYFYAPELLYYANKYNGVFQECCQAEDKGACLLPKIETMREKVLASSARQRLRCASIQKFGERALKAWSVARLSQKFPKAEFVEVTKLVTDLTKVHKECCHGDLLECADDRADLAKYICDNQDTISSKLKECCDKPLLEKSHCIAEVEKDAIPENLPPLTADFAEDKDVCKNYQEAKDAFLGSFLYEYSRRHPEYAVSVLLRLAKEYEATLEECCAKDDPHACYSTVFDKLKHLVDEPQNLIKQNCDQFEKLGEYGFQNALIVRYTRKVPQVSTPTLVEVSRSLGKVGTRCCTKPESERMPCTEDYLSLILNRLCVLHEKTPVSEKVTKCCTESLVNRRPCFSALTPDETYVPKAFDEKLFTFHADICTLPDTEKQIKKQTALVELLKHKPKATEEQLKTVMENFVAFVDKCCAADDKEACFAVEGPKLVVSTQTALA
Experimental: The column was washed with 4 mL each of 50 mM NaCl, 100 mM NaCl, 200 mM NaCl, 300 mM NaCl, 400 mM NaCl, 500 mM NaCl and 1000 mM NaCl, 0.1 M phosphate, pH 7.0 buffer. The column was then washed with 1 M NH_2OH 200 mM NH_4CO_3 pH 6.0 (4 mL) and finally eluted in 6M Gn.HCl 100 mM phosphate pH 6.5 (4 mL). Samples from all column fractions were monitored by absorbance at 280 nm and by HPLC.

[4] = target: B5; assay: Gly-[COS]-Gly array on C3G peptide affinity column, MALDI MS readout (FIG. 27A)
[5] = target: T1, synthetic murine cCrk N-terminal SH3 …; assay: control peptide affinity column
[6] = target: T1, synthetic murine cCrk N-terminal SH3 …; assay: in solution; method not stated in the legend
Experimental: as §1, §2
Target sequence in this assay (Q64010 134-191 limits assumed): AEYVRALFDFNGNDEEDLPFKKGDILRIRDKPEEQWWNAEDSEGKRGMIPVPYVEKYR

B1: c-Crk N-terminal SH3 domain (134-191) analogue, E^148E^149 replaced by Gly-[COS]-βAla (other)
chain: AEYVRALFDFNGNDGXDLPFKKGDILRIRDKPEEQWWNAEDSEGKRGMIPVPYVEKYR
modifications: not fully specified; Gly-[COS]-βAla unit (-NH-CH2-CO-S-CH2-CH2-CO-) in place of E148-E149; backbone thioester
notes: Positions count on murine c-Crk; X = -S-CH2CH2-CO- unit; Tested crude in a pooled array
binding result [1]: binds

B2: c-Crk N-terminal SH3 domain (134-191) analogue, D^163K^164 replaced by Gly-[COS]-βAla (other)
chain: AEYVRALFDFNGNDEEDLPFKKGDILRIRGXPEEQWWNAEDSEGKRGMIPVPYVEKYR
modifications: not fully specified; Gly-[COS]-βAla unit (-NH-CH2-CO-S-CH2-CH2-CO-) in place of D163-K164; backbone thioester
notes: Positions count on murine c-Crk; X = -S-CH2CH2-CO- unit; also called DK; Gly-SβAla analogue
binding result [2]: no binding
binding result [1]: binds

B3: c-Crk N-terminal SH3 domain (134-191) analogue, dipeptide IL (158-159) replaced by Gly-[COS]-βAla (other)
chain: AEYVRALFDFNGNDEEDLPFKKGDGXRIRDKPEEQWWNAEDSEGKRGMIPVPYVEKYR
modifications: not fully specified; Gly-[COS]-βAla unit (-NH-CH2-CO-S-CH2-CH2-CO-) in place of I158-L159; backbone thioester
notes: Positions count on murine c-Crk; X = -S-CH2CH2-CO- unit; also called Gly-SβAla analogue
binding result [2]: no binding
binding result [1]: no binding

B4: c-Crk N-terminal SH3 domain (134-191) analogue, dipeptide DI (157-158) replaced by Gly-[COS]-βAla (other)
chain: AEYVRALFDFNGNDEEDLPFKKGGXLRIRDKPEEQWWNAEDSEGKRGMIPVPYVEKYR
modifications: not fully specified; Gly-[COS]-βAla unit (-NH-CH2-CO-S-CH2-CH2-CO-) in place of D157-I158; backbone thioester
notes: as for B3
binding result [2]: no binding
binding result [1]: no binding

B5
Kd [3]: 2400 nM
binding result (BSA): no binding

B6: c-Crk N-terminal SH3 domain (134-191) analogue, dipeptide RD (162-163) replaced by Gly-[COS]-Gly (other)
chain: AEYVRALFDFNGNDEEDLPFKKGDILRIGGKPEEQWWNAEDSEGKRGMIPVPYVEKYR
modifications: not fully specified; Gly-[COS]-Gly unit (-NHCH2CO-SCH2CO-) in place of R162-D163; backbone thioester (S in place of the NH of residue 163)
notes: Member of the nine-member Gly-[COS]-Gly array over cCrk(156-165); Positions count on murine c-Crk; also called RD (Gly-[COS]-Gly array)
binding result [4]: binds

B7
binding result [5]: no binding

B8: c-Crk N-terminal SH3 domain (134-191) analogue, dipeptide RI (160-161) replaced by Gly-[COS]-Gly (other)
chain: AEYVRALFDFNGNDEEDLPFKKGDILGGRDKPEEQWWNAEDSEGKRGMIPVPYVEKYR
modifications: not fully specified; Gly-[COS]-Gly unit (-NHCH2CO-SCH2CO-) in place of R160-I161; backbone thioester (S in place of the NH of residue 161)
notes: Member of the nine-member Gly-[COS]-Gly array over cCrk(156-165); Positions count on murine c-Crk; also called RI (Gly-[COS]-Gly array)
binding result [4]: binds

PPPALPPKKR-NH2 (also called C3G peptide) [C3G-derived peptide PPPALPPKKR.amide]
Kd [6]: 2300 nM
Kd [3]: 1800 nM

B9: c-Crk N-terminal SH3 domain (134-191) analogue, dipeptide DI (157-158) replaced by Gly-[COS]-Gly (other)
chain: AEYVRALFDFNGNDEEDLPFKKGGGLRIRDKPEEQWWNAEDSEGKRGMIPVPYVEKYR
modifications: not fully specified; Gly-[COS]-Gly unit (-NHCH2CO-SCH2CO-) in place of D157-I158; backbone thioester (S in place of the NH of residue 158)
notes: Member of the nine-member Gly-[COS]-Gly array over cCrk(156-165); Positions count on murine c-Crk; also called DI (Gly-[COS]-Gly array)
binding result [4]: binds

B10: c-Crk N-terminal SH3 domain (134-191) analogue, dipeptide LR (159-160) replaced by Gly-[COS]-Gly (other)
chain: AEYVRALFDFNGNDEEDLPFKKGDIGGIRDKPEEQWWNAEDSEGKRGMIPVPYVEKYR
modifications: not fully specified; Gly-[COS]-Gly unit (-NHCH2CO-SCH2CO-) in place of L159-R160; backbone thioester (S in place of the NH of residue 160)
notes: Member of the nine-member Gly-[COS]-Gly array over cCrk(156-165); Positions count on murine c-Crk; also called LR (Gly-[COS]-Gly array)
binding result [4]: binds

B11: c-Crk N-terminal SH3 domain (134-191) analogue, dipeptide DK (163-164) replaced by Gly-[COS]-Gly (other)
chain: AEYVRALFDFNGNDEEDLPFKKGDILRIRGGPEEQWWNAEDSEGKRGMIPVPYVEKYR
modifications: not fully specified; Gly-[COS]-Gly unit (-NHCH2CO-SCH2CO-) in place of D163-K164; backbone thioester (S in place of the NH of residue 164)
notes: Member of the nine-member Gly-[COS]-Gly array over cCrk(156-165); Positions count on murine c-Crk; also called DK (Gly-[COS]-Gly array)
binding result [4]: binds

B12: c-Crk N-terminal SH3 domain (134-191) analogue, dipeptide GD (156-157) replaced by Gly-[COS]-Gly (other)
chain: AEYVRALFDFNGNDEEDLPFKKGGILRIRDKPEEQWWNAEDSEGKRGMIPVPYVEKYR
modifications: not fully specified; Gly-[COS]-Gly unit (-NHCH2CO-SCH2CO-) in place of G156-D157; backbone thioester (S in place of the NH of residue 157)
notes: Member of the nine-member Gly-[COS]-Gly array over cCrk(156-165); G156 stays Gly; Positions count on murine c-Crk; also called GD (Gly-[COS]-Gly array)
binding result [4]: binds

B13: c-Crk N-terminal SH3 domain (134-191) analogue, dipeptide KP (164-165) replaced by Gly-[COS]-Gly (other)
chain: AEYVRALFDFNGNDEEDLPFKKGDILRIRDGGEEQWWNAEDSEGKRGMIPVPYVEKYR
modifications: not fully specified; Gly-[COS]-Gly unit (-NHCH2CO-SCH2CO-) in place of K164-P165; backbone thioester (S in place of the NH of residue 165)
notes: Member of the nine-member Gly-[COS]-Gly array over cCrk(156-165); Positions count on murine c-Crk; also called KP (Gly-[COS]-Gly array)
binding result [4]: binds

B14: c-Crk N-terminal SH3 domain (134-191) analogue, dipeptide IR (161-162) replaced by Gly-[COS]-Gly (other)
chain: AEYVRALFDFNGNDEEDLPFKKGDILRGGDKPEEQWWNAEDSEGKRGMIPVPYVEKYR
modifications: not fully specified; Gly-[COS]-Gly unit (-NHCH2CO-SCH2CO-) in place of I161-R162; backbone thioester (S in place of the NH of residue 162)
notes: Member of the nine-member Gly-[COS]-Gly array over cCrk(156-165); Positions count on murine c-Crk; also called IR (Gly-[COS]-Gly array)
binding result [4]: binds

B15: c-Crk N-terminal SH3 domain (134-191) analogue, dipeptide IL (158-159) replaced by Gly-[COS]-Gly (other)
chain: AEYVRALFDFNGNDEEDLPFKKGDGGRIRDKPEEQWWNAEDSEGKRGMIPVPYVEKYR
modifications: not fully specified; Gly-[COS]-Gly unit (-NHCH2CO-SCH2CO-) in place of I158-L159; backbone thioester (S in place of the NH of residue 159)
notes: Member of the nine-member Gly-[COS]-Gly array over cCrk(156-165); Positions count on murine c-Crk; also called IL (Gly-[COS]-Gly array)
binding result [4]: binds
